{"source": "paper PMC6028238", "molecules": {"B1": {"name": "human C4BP in serum of human C4BP transgenic mice (natural protein)", "chain": "NCGPPPTLSFAAPMDITLTETRFKTGTTLKYTCLPGYVRSHSTQTLTCNSDGEWVYNTFCIYKRCRHPGELRNGQVEIKTDLSFGSQIEFSCSEGFFLIGSTTSRCEVQDRGVGWSHPLPQCEIVKCKPPPDIRNGRHSGEENFYAYGFSVTYSCDPRFSLLGHASISCTVENETIGVWRPSPPTCEKITCRKPDVSHGEMVSGFGPIYNYKDTIVFKCQKGFVLRGSSVIHCDADSKWNPSPPACEPNSCINLPDIPHASWETYPRPTKEDVYVVGTVLRYRCHPGYKPTTDEPTTVICQKNLRWTPYQGCEALCCPEPKLNNGEITQHRKSRPANHCVYFYGDEISFSCHETSRFSAICQGDGTWSPRTPSCGDICNFPPKIAHGHYKQSSSYSFFKEEIIYECDKGYILVGQAKLSCSYSHWSAPAPQCKALCRKPELVNGRLSVDKDQYVEPENVTIQCDSGYGVVGPQSITCSGNRTWYPEVPKCEWETPEGCEQVLTGKRLMQCLPNPEDVKMALEVYKLSLEIEQLELQRDSARQSTLDKEL"}}, "key": {"[1]": {"biological_target": "protein H on the surface of S. pyogenes AP1 bacteria (Streptococcus pyogenes (endogenous in strain AP1))", "test": "electron microscopy with gold-labelled protein"}, "[2]": {"biological_target": "human C4b-binding protein (C4BP), purified from plasma (human) (UniProt P04003)", "test": "negative-stain electron microscopy"}, "[3]": {"biological_target": "protein H on the surface of S. pyogenes AP1 bacteria (Streptococcus pyogenes (endogenous in strain AP1))", "test": "flow cytometry on cells"}}}
{"molecule": "human C4b-binding protein (C4BP), purified from plasma (from UniProt P04003 49-597; P20851 18-252) (complex)", "values": [{"measurement": "gold particles of C4BP bound to the surface, with IgG (gold particles/mm^2)", "setting": "[1]", "result": 917}, {"measurement": "gold particles of C4BP bound to the surface, without IgG (gold particles/mm^2)", "setting": "[1]", "result": 82}]}
{"molecule": "protein H (Streptococcus pyogenes), recombinant (natural protein)", "values": [{"measurement": "percent of C4BP molecules complexed with protein H, with IgG", "setting": "[2]", "result": 83, "unit": "%"}, {"measurement": "percent of C4BP molecules complexed with protein H, without IgG", "setting": "[2]", "result": 7, "unit": "%"}]}
{"molecule": "B1", "values": [{"measurement": "C4BP binding without IgG at 30 °C, as percent of the binding with IVIG", "setting": "[3]", "result": 40, "unit": "%"}, {"measurement": "C4BP binding without IgG at 39 °C, as percent of the binding with IVIG", "setting": "[3]", "result": "< 10", "unit": "%"}, {"measurement": "fold increase of binding with 1 mg/ml IVIG against no IVIG", "setting": "[3]", "result": 2, "unit": "fold"}]}
